T1: human GIPR (human, UniProt P48546 22-466)
T1 sequence: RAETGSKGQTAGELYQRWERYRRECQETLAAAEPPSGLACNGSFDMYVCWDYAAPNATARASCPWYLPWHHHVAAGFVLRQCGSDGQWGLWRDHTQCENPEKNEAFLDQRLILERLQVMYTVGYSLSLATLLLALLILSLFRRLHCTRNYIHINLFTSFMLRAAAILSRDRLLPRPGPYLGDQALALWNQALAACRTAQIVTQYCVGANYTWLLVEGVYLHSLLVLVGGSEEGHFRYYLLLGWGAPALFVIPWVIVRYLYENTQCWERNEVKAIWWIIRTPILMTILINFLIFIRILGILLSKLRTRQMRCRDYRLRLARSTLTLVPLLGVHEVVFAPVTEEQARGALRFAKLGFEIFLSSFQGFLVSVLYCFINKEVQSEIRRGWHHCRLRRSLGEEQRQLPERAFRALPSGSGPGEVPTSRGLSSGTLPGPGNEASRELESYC

T2: murine GIPR (murine, UniProt Q0P543 19-460, limits assumed)
T2 sequence: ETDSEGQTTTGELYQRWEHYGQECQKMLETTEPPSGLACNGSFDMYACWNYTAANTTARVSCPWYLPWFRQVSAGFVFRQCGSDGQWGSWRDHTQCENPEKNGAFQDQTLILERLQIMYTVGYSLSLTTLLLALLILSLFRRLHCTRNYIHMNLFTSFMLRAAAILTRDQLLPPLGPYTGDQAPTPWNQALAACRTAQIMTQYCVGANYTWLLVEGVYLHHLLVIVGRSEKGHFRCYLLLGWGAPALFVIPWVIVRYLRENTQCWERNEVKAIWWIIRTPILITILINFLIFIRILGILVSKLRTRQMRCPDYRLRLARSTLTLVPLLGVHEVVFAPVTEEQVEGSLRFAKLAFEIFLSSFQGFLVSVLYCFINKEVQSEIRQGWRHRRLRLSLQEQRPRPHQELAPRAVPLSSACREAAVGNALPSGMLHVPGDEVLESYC

T3: huGIPR ECD (human, UniProt P48546 21-129, limits assumed)
T3 construct: Soluble analyte of the Biacore assay; also called human GIPR extracellular domain
T3 sequence: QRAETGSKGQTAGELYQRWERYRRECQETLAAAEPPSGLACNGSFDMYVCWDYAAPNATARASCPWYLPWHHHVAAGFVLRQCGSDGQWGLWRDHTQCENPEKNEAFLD

B1: 2G10.340 (antibody, human IgG1, kappa, N297G, V domains shown)
VH: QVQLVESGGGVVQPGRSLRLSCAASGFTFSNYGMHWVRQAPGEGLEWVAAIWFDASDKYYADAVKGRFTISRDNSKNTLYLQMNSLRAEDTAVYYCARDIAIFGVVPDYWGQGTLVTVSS
VL: EIVMTQSPATLSVSPGERATLSCRASQSVHTNLAWYQQKPGQAPRLLIYNAATRATGIPARFSGSGSGTEFTLTISSLQSEDFAVYYCQQYQNWPLTFGGGTKVEIKR
B2: 2G10.603 (antibody, human IgG1, kappa, N297G, V domains shown)
VH: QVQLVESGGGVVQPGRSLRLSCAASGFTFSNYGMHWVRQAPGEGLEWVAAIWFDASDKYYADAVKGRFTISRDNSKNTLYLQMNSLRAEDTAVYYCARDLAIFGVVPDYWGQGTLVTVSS
VL: B1 VL with H30D, T31R, N32H, N50E, F62V
notes: also called SS-26228
B3: 2G10.348 (antibody, human IgG1, kappa, N297G, V domains shown)
VH: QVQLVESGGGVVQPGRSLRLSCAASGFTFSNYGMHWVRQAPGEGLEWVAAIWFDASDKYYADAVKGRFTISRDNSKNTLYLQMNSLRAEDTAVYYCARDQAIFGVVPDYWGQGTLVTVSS
VL: B1 VL with H30S, T31S, N50G, Q92N
B4: 2G10.601 (antibody, human IgG1, kappa, N297G, V domains shown)
VH: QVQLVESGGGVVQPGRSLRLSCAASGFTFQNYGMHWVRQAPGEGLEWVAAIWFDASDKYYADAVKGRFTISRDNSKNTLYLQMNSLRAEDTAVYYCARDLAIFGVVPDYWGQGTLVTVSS
VL: B1 VL with H30F, T31S, N32H, N50E, F62V
notes: also called SS-26226
B5: 2G10.341 (antibody, human IgG1, kappa, N297G, V domains shown)
VH: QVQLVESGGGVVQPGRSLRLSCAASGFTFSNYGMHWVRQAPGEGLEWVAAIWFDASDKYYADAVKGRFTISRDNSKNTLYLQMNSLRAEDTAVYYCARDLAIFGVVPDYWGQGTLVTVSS
VL: B1 VL with H30D, T31V, N32H, N50E, Q92N, N93Q
B6: 2G10.345 (antibody, human IgG1, kappa, N297G, V domains shown)
VH: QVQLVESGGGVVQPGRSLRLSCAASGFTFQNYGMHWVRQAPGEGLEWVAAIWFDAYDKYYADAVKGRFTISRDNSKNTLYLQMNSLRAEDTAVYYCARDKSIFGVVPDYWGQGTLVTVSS
VL: B1 VL with H30N, T31R, N32H, N50E, Q92N
B7: 2G10.605 (antibody, human IgG1, kappa, N297G, V domains shown)
VH: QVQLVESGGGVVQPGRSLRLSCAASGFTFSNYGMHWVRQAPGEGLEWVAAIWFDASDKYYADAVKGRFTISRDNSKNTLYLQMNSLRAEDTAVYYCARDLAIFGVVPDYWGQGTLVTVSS
VL: B1 VL with H30D, T31V, F62V
notes: also called SS-26230
B8: 2G10.610 (antibody, human IgG1, kappa, N297G, V domains shown)
VH: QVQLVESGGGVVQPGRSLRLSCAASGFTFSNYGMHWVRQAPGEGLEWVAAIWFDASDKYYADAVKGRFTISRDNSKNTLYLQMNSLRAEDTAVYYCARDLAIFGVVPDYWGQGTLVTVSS
VL: B1 VL with H30F, N32H, N50E, F62V, Q92N
notes: also called SS-26235
B9: 2G10.344 (antibody, human IgG1, kappa, N297G, V domains shown)
VH: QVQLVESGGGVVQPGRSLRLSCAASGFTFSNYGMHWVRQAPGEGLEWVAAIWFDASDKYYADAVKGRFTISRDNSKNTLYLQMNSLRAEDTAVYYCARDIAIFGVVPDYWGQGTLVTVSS
VL: B1 VL with H30S, T31S, N32H, N50E, N93Q
B10: 2G10.342 (antibody, human IgG1, kappa, N297G, V domains shown)
VH: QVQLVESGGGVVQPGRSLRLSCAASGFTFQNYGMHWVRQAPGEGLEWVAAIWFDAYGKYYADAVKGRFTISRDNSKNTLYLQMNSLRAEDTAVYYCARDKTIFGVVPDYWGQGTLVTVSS
VL: B1 VL with H30E, T31R, N32H, N50E, N93Q
B11: 2G10.347 (antibody, human IgG1, kappa, N297G, V domains shown)
VH: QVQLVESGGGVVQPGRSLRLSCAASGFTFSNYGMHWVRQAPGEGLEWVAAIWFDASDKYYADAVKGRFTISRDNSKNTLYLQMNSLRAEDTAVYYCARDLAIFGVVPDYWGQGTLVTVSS
VL: B1 VL with H30S, T31S, N50G, Q92N
B12: 2G10.343 (antibody, human IgG1, kappa, N297G, V domains shown)
VH: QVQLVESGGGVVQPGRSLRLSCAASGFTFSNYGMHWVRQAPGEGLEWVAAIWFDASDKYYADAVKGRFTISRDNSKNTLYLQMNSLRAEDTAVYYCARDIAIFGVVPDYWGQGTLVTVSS
VL: B1 VL with H30L, T31E, N32H, N50E, Q92N
B13: 2G10.608 (antibody, human IgG1, kappa, N297G, V domains shown)
VH: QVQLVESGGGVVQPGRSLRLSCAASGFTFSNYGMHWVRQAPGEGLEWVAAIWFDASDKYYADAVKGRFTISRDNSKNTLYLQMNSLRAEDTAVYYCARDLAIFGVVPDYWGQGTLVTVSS
VL: B1 VL with H30F, T31S, N32H, N50E, F62V, N93Q
notes: also called SS-26233
B14: 2G10.604 (antibody, human IgG1, kappa, N297G, V domains shown)
VH: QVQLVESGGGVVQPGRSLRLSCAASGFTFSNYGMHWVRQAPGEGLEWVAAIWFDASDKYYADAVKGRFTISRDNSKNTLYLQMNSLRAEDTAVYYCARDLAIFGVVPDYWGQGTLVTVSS
VL: B1 VL with H30N, T31R, N32H, N50E, F62V
notes: also called SS-26229
B15: 2G10.602 (antibody, human IgG1, kappa, N297G, V domains shown)
VH: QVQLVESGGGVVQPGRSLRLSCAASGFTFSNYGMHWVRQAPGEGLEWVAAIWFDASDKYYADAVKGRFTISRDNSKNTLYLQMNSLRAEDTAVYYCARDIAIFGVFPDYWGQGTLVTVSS
VL: B1 VL with H30F, T31E, N32H, N50E, F62V, Q92N
notes: also called SS-26227
B16: 2G10.609 (antibody, human IgG1, kappa, N297G, V domains shown)
VH: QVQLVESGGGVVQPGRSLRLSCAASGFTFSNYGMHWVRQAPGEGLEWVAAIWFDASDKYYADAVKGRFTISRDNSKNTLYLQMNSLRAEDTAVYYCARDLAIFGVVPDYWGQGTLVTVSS
VL: B1 VL with H30E, T31R, N32H, N50E, F62V
notes: also called SS-26234
B17: 2G10.607 (antibody, human IgG1, kappa, N297G, V domains shown)
VH: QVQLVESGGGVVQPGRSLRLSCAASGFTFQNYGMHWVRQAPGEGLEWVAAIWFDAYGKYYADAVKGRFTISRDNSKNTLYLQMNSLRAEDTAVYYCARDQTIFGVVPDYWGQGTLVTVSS
VL: B1 VL with H30D, T31R, N32H, N50E, F62V, Q92N, N93Q
notes: also called SS-26232
B18: 2G10.606 (antibody, human IgG1, kappa, N297G, V domains shown)
VH: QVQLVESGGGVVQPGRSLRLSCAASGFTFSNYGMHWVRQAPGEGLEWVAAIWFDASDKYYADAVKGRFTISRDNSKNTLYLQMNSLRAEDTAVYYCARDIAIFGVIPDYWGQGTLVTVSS
VL: B1 VL with H30L, N32H, N50E, F62V
notes: also called SS-26231
B19: iPS:529405 (antibody, human IgG1, kappa, N297G, V domains shown)
VH: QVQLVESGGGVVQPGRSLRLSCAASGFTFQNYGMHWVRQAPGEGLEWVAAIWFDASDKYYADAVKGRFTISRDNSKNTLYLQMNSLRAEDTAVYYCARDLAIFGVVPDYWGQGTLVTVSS
VL: B1 VL with M4L, V13L, H30F, T31S, N32H, N50E, A60D, S77R, Q79E, S80P
B20: iPS:529403 (antibody, human IgG1, kappa, N297G, V domains shown)
VH: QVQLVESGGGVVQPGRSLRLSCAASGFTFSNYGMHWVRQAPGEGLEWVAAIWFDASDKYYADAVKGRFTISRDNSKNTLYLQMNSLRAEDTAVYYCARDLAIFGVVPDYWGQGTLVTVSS
VL: B1 VL with M4L, V13L, H30D, T31L, N32H, N50E, A60D, S77R, Q79E, S80P
B21: iPS:529400 (antibody, human IgG1, kappa, N297G, V domains shown)
VH: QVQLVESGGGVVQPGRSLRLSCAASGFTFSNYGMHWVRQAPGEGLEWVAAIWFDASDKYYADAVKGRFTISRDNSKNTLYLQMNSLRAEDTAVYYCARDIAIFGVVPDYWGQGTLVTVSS
VL: B1 VL with M4L, V13L, H30S, T31S, N50G, A60D, S77R, Q79E, S80P, Q92N
B22: iPS:529399 (antibody, human IgG1, kappa, N297G, V domains shown)
VH: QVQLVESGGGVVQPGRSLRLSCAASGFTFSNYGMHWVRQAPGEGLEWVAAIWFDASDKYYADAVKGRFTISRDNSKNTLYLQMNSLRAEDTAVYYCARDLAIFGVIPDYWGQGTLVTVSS
VL: B1 VL with M4L, V13L, H30S, T31E, N32H, N50E, A60D, S77R, Q79E, S80P
B23: iPS:529397 (antibody, human IgG1, kappa, N297G, V domains shown)
VH: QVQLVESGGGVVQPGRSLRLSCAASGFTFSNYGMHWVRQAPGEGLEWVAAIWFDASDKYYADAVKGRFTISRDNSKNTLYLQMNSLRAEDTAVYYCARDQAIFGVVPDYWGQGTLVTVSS
VL: B1 VL with M4L, V13L, H30S, T31S, N50G, A60D, S77R, Q79E, S80P, Q92N
B24: iPS:529404 (antibody, human IgG1, kappa, N297G, V domains shown)
VH: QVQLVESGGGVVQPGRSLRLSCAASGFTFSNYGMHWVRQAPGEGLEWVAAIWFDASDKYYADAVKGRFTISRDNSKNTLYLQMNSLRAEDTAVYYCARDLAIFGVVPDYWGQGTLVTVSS
VL: EIVLTQSPATLSLSPGERATLSCRASQSVNLNLAWYQQKPGQAPRLLIYQAATRATGIPDRFSGSGSGTEFTLTISRLEPEDFAVYYCQQYNQWPLTFGGGTKVEIKR

Substitutions are numbered along the chain they refer to.

One experiment deals with T1, human GIPR. The experiment in a line: cell-based or functional assay.
On to B1, for which the “cAMP IC50” value amounted to 25.9 nM.

Consider B2, for which the “cAMP IC50” value was 30.5 nM.

As for B3, the “cAMP IC50” value came out at 42.8 nM.

Consider B4, for which the “cAMP IC50” value stood at 21.4 nM.

For B5, the “cAMP IC50” value was 24.7 nM.

Consider B6, for which the “cAMP IC50” value turned out to be 18.9 nM.

Turning to B7, the “cAMP IC50” value was determined as 25.6 nM.

For the molecule B8, the “cAMP IC50” value was 12.9 nM.

For B9, the “cAMP IC50” value was 21.9 nM.

On to B10, for which the “cAMP IC50” value worked out at 11.6 nM.

As to B11, the “cAMP IC50” value stood at 28.4 nM.

On to B12, for which the “cAMP IC50” value turned out to be 37.6 nM.

Turning to B13, the “cAMP IC50” value came to 21.7 nM.

Regarding B14, the “cAMP IC50” value is 27.1 nM.

Take B15: the “cAMP IC50” value came to 16.8 nM.

With B16, the “cAMP IC50” value was found to be 26.9 nM.

As for B17, the “cAMP IC50” value is 19.4 nM.

Take B18: the “cAMP IC50” value was 20.4 nM.

The next experiment concerns the target T1, human GIPR. The experiment is described as follows: cell-based or functional assay. This is another data set of the same source.
As to B19, the “human cAMP IC50” value amounted to 22.7 nM.

Consider B20, for which the “human cAMP IC50” value was 33.9 nM.

With B21, the “human cAMP IC50” value is 36.6 nM.

In the case of B22, the “human cAMP IC50” value is 39.3 nM.

For the molecule B23, the “human cAMP IC50” value stood at 50 nM.

For the molecule B3, the “human cAMP IC50” value came out at 53 nM.

Take B24: the “human cAMP IC50” value came to 27.8 nM.

A further experiment has as its target T2, murine GIPR. The experiment is described as follows: cell-based or functional assay.
On to B19, for which the “murine cAMP” value is 6.1 nM.

As to B20, the “murine cAMP” value was 12 nM.

Consider B21, for which the “murine cAMP” value stood at 79.5 nM.

Consider B22, for which the “murine cAMP” value worked out at 12.9 nM.

Consider B23, for which the “murine cAMP” value was determined as 108 nM.

On to B3, for which the “murine cAMP” value stood at 14600 nM.

Regarding B24, the “murine cAMP” value was 3.9 nM.

In a further experiment the target is T3, huGIPR ECD. The experiment is described as follows: SPR (Biacore T200), mAb captured via goat anti-huFc, 200 nM huGIPR ECD analyte. The protocol:
Immobilization of Goat-anti-huFc antibody to a S-CM5 sensor chip surface was performed according to manufacturer's instructions. The Biacore instrument running buffer is 0.005% P20/PBS 1×, pH7.4, no calcium chloride, no magnesium chloride. Briefly, carboxyl groups on the sensor chip surfaces were activated by injecting 60 μL of a mixture containing 0.2 M N-ethyl-N′-(dimethylaminopropyl) carbodiimide (EDC) and 0.05 M N-hydroxysuccinimide (NHS). Goat-anti-huFc antibody was diluted in 10 mM sodium acetate, pH 4.0 at 20 μg/ml and injected over the activated chip surface at 30 uL/min for 6 minutes. Excess reactive groups on the surfaces were deactivated by injecting 60 μL of 1 M ethanolamine. Final immobilized level was ˜8000 resonance units (RU).
Binding assays were carried out on the immobilized goat anti-huFc antibody surface by Biacore T200. The experiment was performed at 25° C. The instrument running buffer was 0.005% P20/PBS. The goat anti-huFc capture antibody was covalently attached to the sensor chip surface via standard amine coupling to flow cells channel 1-4. The anti-huGIPR antibodies were diluted in sample buffer (0.1 mg/ml BSA, 0.005% P20, PBS) to ˜10 nM then captured to flow cells channel 2, 3, 4. Flow cell channel 1 was as a blank reference surface without injection of anti-huGIPR antibody. The captured antibody response range was ˜250 RU. Then 200 nM huGIPR ECD was injected over the goat anti-huFc antibody captured anti-huGIPR antibody surfaces at flow rate 50 ul/min for 3 minutes. After a 10 minutes dissociation, each surface was regenerated by injecting 10 mM Glycine, pH 1.5 for 30 seconds twice.
B1 displayed an off-rate (koff) of 6e-05 s⁻¹.

In turn, B2 showed a koff of less than 5e-05 s⁻¹.

On to B3, for which the koff is 0.0006 s⁻¹.

As for B4, the koff was 6e-05 s⁻¹. This koff is about 10-fold lower than that of the molecule before.

B5 returned a koff of 7e-05 s⁻¹. This koff and that of the molecule before are within 1.5-fold of each other.

Regarding B6, the koff came out at 8e-05 s⁻¹. The koff values of the last two molecules are within 1.5-fold of each other.

In turn, B7 showed a koff of 7e-05 s⁻¹.

For the molecule B8, the koff was less than 5e-05 s⁻¹.

Regarding B9, the koff was found to be 6e-05 s⁻¹.

B10 showed an off-rate constant (koff) of less than 5e-05 s⁻¹.

For B11, the off-rate constant (koff) came out at 0.0001 s⁻¹.

B12 yielded a koff of 6e-05 s⁻¹. This koff is about 1.7-fold lower than that of the molecule before.

B13 returned a koff of less than 5e-05 s⁻¹.

B14 gave a koff of less than 5e-05 s⁻¹.

With B15, the off-rate (koff) was less than 5e-05 s⁻¹.

Turning to B16, the koff came to 6e-05 s⁻¹.

On to B17, for which the koff was 6e-05 s⁻¹.

With B18, the koff is less than 5e-05 s⁻¹.

The record behind these values is patent US20210087286A1 (Amgen, published 2021).
